Laboratory results: article PMC6315137, “Pyridine Nucleotide Coenzyme Specificity of p-Hydroxybenzoate Hydroxylase and Related Flavoprotein Monooxygenases” (Frontiers in Microbiology, 2018)

Assays:
Assay in all cases: purified protein
purified protein [1] = substrate: NC(=O)C1=CN([C@@H]2O[C@H](COP(=O)(O)OP(=O)(O)OC[C@H]3O[C@@H](n4cnc5c(N)ncnc54)[C@H](OP(=O)(O)O)[C@@H]3O)[C@@H](O)[C@H]2O)C=CC1; format: biochemical, Rhodococcus opacus; details: 500 μM 4-hydroxybenzoate, 60 μM FAD, 50 mM Tris/sulfate pH 7.5, 30°C
purified protein [2] = substrate: NC(=O)C1=CN([C@@H]2O[C@H](COP(=O)(O)OP(=O)(O)OC[C@H]3O[C@@H](n4cnc5c(N)ncnc54)[C@H](O)[C@@H]3O)[C@@H](O)[C@H]2O)C=CC1; format: biochemical, Rhodococcus opacus; details: 500 μM 4-hydroxybenzoate, 60 μM FAD, 50 mM Tris/sulfate pH 7.5, 30°C
purified protein [3] = substrate: O=C(O)c1ccc(O)cc1; format: biochemical, Rhodococcus opacus; details: 175 μM NADH, 60 μM FAD, 50 mM Tris/sulfate pH 7.5, 30°C
purified protein [4] = substrate: NC(=O)C1=CN([C@@H]2O[C@H](COP(=O)(O)OP(=O)(O)OC[C@H]3O[C@@H](n4cnc5c(N)ncnc54)[C@H](OP(=O)(O)O)[C@@H]3O)[C@@H](O)[C@H]2O)C=CC1; format: biochemical, Cupriavidus necator; details: 500 μM 4-hydroxybenzoate, 60 μM FAD, 50 mM Tris/sulfate pH 7.5, 30°C
purified protein [5] = substrate: O=C(O)c1ccc(O)cc1; format: biochemical, Cupriavidus necator; details: 175 μM NADPH, 60 μM FAD, 50 mM Tris/sulfate pH 7.5, 30°C
purified protein [6] = substrate: NC(=O)C1=CN([C@@H]2O[C@H](COP(=O)(O)OP(=O)(O)OC[C@H]3O[C@@H](n4cnc5c(N)ncnc54)[C@H](O)[C@@H]3O)[C@@H](O)[C@H]2O)C=CC1; format: biochemical, Cupriavidus pinatubonensis; details: 500 μM 4-hydroxybenzoate, 60 μM FAD, 50 mM Tris/sulfate pH 7.5, 30°C
purified protein [7] = substrate: O=C(O)c1ccc(O)cc1; format: biochemical, Cupriavidus pinatubonensis; details: 175 μM NADH, 60 μM FAD, 50 mM Tris/sulfate pH 7.5, 30°C

B1: PHBHRo1CP (Rhodococcus opacus) (protein)
chain: MNTQVGIVGGGPAGLMLSHLLHLKGIDSVVLESRTREEVEGTIRAGVLEQNTVDLMVDTGLGDRVKREGLTHHGIELRFGGRGHRIDFDELTNGRAVTVYPQHEVLKDLIARRLEDDGDIRFGVSDVQVHDHTSDNPKITYLDADGNEQTLTCALVAGCDGSRTSTRGLIPETTVRTDHFRQYPFAWFGILAEAPPSSEELIYANHPRGFALISTRTPEVQRHYLQVDPDDSVDNWSDDRIWSELHARVDGEGAEIKDGKIFQKSILQFRSFVCEPMQHGNLFLAGDAAHTVPPTGAKGMNLAIADVYFLSQAMAEYFATRSRAGLEGYTDSVLPRVWRTQHFSWWMSSMLHRLPDETGFGHKRQVAELDMVTRSVAGRTLIAENYVGTPLG
notes: His10-tagged, pET16bp, E. coli, Ni-chelate purified; motif 32-ESRTREEVEGT
Km (purified protein [1]): 153 ± 16 µM
Vmax (purified protein [1]): 19.8 µmol/min/mg
kcat (purified protein [1]): 15 ± 1.5 s⁻¹
Km (purified protein [2]): 39.7 ± 5.0 µM
Vmax (purified protein [2]): 20 µmol/min/mg
kcat (purified protein [2]): 15.3 ± 0.7 s⁻¹
Km (purified protein [3]): 30.4 ± 2.4 µM
Vmax (purified protein [3]): 16.8 µmol/min/mg
kcat (purified protein [3]): 12.9 ± 0.2 s⁻¹

B2: PHBHCn2 (Cupriavidus pinatubonensis JMP134) (protein)
chain: MRTQVAIIGAGPAGLLLGQLLSRAGIDNIIVEQRSPEYVLGRIRAGILESVTVDALERAGVAARLHDEGLPHAGIELSFNGQRHRIDLQALTGRTVTVYGQTEVTRDLMAARQAEGTTTIYEAADVSLHGFDGTRPLVRYRKDGATHEIECDYIAGCDGFHGVSRQSVPATSSQLFERVYPFGWLGILSDTPPVADELIYASHERGFALCSMRSKARSRYYVQVPSTERVEDWSDERFWDELRSRLDPQAAESLVTGPSIEKSIAPLRSFVCEPMRFGRLFLAGDAAHIVPPTGAKGLNLAASDVLYLADALTARYQQDDLRELDSYSEKCLRRIWKAERFSWWMTSLLHRFPDADAFSARIQQAELDFLVSSEAACKALAENYVGLPY
notes: N-terminal His10-tag, codon-optimized gene, E. coli BL21 (DE3) pLysS, Ni-chelate purified; motif 32-EQRSPEYVLGR
Km (purified protein [4]): 146 ± 20 µM
Vmax (purified protein [4]): 49.1 µmol/min/mg
kcat (purified protein [4]): 37 ± 2.8 s⁻¹
Km (purified protein [5]): 26.4 ± 4.4 µM
Vmax (purified protein [5]): 27 µmol/min/mg
kcat (purified protein [5]): 18 ± 0.7 s⁻¹

B3: PHBHCn1 (Cupriavidus pinatubonensis JMP134) (protein)
chain: MRTRVAIIGAGPAGLLLGHLLQRAGIDSVILEDCTQAHVEARIRAGVLEQGTVDLLEEAGVAARLREQGMVHHGIDLLFDGQRHRIDLSGLTGGRAITVYGQHEVVRDLIAARQACGAPLLFEVSQVALHGLDTQSPSLSFEHGGQRHVLACDFIAGCDGSHGVSRHAVPAGALQVFERSYPFAWLGILASAAPAAQELIYASHARGFALFSMRSPEITRLYLQCRPDEDLAGWTDRRIWDELHARLETGDGWHLNEGPVLQKGITPMRSLVTEPMQYGRLFLAGDAAHIVPPTGAKGMNLAVADVRNLAHALVTHYRHGRDDLLAGYSSACLARVWRAEHFSWWMTSLLHRFDDHTPFTARLQHAELAYVCASQAASRMLAENYVGLPFAPLPA
notes: N-terminal His10-tag, codon-optimized gene, E. coli BL21 (DE3) pLysS, Ni-chelate purified; motif 32-EDCTQAHVEAR
Km (purified protein [6]): 49.8 ± 5.6 µM
Vmax (purified protein [6]): 12.3 µmol/min/mg
kcat (purified protein [6]): 9.4 ± 0.4 s⁻¹
Km (purified protein [7]): 20.2 ± 2.3 µM
Vmax (purified protein [7]): 9.9 µmol/min/mg
kcat (purified protein [7]): 7.6 ± 0.2 s⁻¹
